US6607880

T1: 35S-labelled transcription-translation product of p28 Bap31 cDNA
T1 chain: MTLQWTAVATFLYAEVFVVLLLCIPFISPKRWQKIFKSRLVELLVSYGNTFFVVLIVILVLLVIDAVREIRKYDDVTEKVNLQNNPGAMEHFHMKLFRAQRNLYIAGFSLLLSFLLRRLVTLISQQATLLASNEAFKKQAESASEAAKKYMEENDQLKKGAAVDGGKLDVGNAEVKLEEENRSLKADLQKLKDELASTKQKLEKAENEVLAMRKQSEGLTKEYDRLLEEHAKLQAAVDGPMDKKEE

B1: ICE (caspase-1) (protein)
chain: NPAMPTSSGSEGNVKLCSLEEAQRIWKQKSAEIYPIMDKSSRTRLALIICNEEFDSIPRRTGAEVDITGMTMLLQNLGYSVDVKKNLTASDMTTELEAFAHRPEHKTSDSTFLVFMSHGIREGICGKKHSEQVPDILQLNAIFNMLNTKNCPSLKDKPKVIIIQACRGDSPGVVWFKDSVGVSGNLSLPTTEEFEDDAIKKAHIEKDFIAFCSSTPDNVSWRHPTMGSVFIGRLIEHMQEYACSCDVEEIFRKVRFSFEQPDGRAQMPTTERVTLTRCFYLFPGH
B2: FLICE (caspase-8) (protein)
chain: SESQTLDKVYQMKSKPRGYCLIINNHNFAKAREKVPKLHSIRDRNGTHLDAGALTTTFEELHFEIKPHDDCTVEQIYEILKIYQLMDHSNMDCFICCILSHGDKGIIYGTDGQEAPIYELTSQFTGLKCPSLAGKPKVFFIQACQGDNYQKGIPVETDSEEQPYLEMDLSSPQTRYIPDEADFLLGMATVNNCVSYRNPAEGTWYIQSLCQSLRERCPRGDDILTILTEVNYEVSNKDDKKNMGKQMPQPTFTLRKKLVFPSD

Target: T1, 35S-labelled transcription-translation …

Protein	cleavage of 35S-labelled p28 Bap31 in vitro (SDS-PAGE)	amount of p20 cleavage product (Phosphorimager)
B1	ICE (caspase-1), on the other hand, generated two products (denoted “a” and “b”) whose apparent sizes in SDS gels (approximately 27 kDA and 20 kDa, respectively)	–
B2	–	p28 Bap31 was more sensitive to cleavage by FLICE (caspase-8) than ICE (caspase-1)
